Assay results published in patent US20200116725.

What was measured:
[1] = system: P213 MMP9-cleavable peptide, Biotin-GGGPLGVRGKGGC
[2] = system: P220 MMP9-cleavable peptide, Biotin-GGGGGGGGGGPLGVRGKGGC
[3] = system: P120 thrombin-cleavable peptide, Biotin-GGGSGGGSGGfPRSGGGGGC
[4] = system: P113 thrombin-cleavable peptide, Biotin-SGGfPRSGGSGGC

Chain of MMP9 (Active, Human, Recombinant, PF140, Merck Millipore) (chain, as listed by the source): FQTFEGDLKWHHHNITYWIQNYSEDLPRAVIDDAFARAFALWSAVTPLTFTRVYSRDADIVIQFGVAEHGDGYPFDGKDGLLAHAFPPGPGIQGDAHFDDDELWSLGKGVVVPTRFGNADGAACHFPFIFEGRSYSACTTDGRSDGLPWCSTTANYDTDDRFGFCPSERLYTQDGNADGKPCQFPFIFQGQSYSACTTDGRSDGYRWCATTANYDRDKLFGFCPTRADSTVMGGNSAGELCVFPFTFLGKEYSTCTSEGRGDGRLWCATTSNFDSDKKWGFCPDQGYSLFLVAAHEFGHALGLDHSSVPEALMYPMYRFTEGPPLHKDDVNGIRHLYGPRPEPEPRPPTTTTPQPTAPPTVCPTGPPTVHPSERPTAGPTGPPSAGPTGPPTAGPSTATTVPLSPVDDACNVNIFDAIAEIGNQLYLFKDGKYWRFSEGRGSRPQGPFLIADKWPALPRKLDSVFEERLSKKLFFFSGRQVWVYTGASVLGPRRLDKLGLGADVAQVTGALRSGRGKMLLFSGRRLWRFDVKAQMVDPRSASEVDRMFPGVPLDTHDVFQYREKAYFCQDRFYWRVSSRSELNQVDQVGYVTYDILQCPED
Chain of P120 thrombin-cleavable peptide, Biotin-GGGSGGGSGGfPRSGGGGGC (chain, as listed by the source): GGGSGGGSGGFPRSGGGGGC

Substance	fraction of AuNCs cleaved from AuNC-P213-NAv within 1 h, FCS, 50 nM MMP9 [1]	rate of cleavage by FCS (linear region, 50 nM MMP9), AuNC-P213-NAv complex [1]	% Cleavage (free AuNC fraction: 7-12 mL), gel filtration chromatography with catalytic activity readout; AuNC-P220-NAv + MMP7/9/13 (12 h) [2]	% Cleavage (free AuNC fraction: 7-12 mL), gel filtration chromatography with catalytic activity readout; AuNC-P220-NAv + MMP9 (12 h) [2] [%]	fraction of AuNCs cleaved from AuNC-P220-NAv within 1 h, FCS, 50 nM MMP9 [2]	rate of cleavage by FCS (linear region, 50 nM MMP9), AuNC-P220-NAv complex [2] [% AuNC cleaved per minute]	% Cleavage (free AuNC fraction: 7-12 mL), gel filtration chromatography with catalytic activity readout; AuNC-P120-NAv + MMP9 (12 h) [3] [%]	% Cleavage (free AuNC fraction: 7-12 mL), gel filtration chromatography with catalytic activity readout; AuNC-P113-NAv + THR (12 h) [4] [%]	% Cleavage (free AuNC fraction: 7-12 mL), gel filtration chromatography with catalytic activity readout; AuNC-P220-NAv + THR (12 h) [2] [%]	% Cleavage (free AuNC fraction: 7-12 mL), gel filtration chromatography with catalytic activity readout; AuNC-1:5-P120-NAv + THR (1 h), ca. 20 biotin ligands per AuNC [3] [%]	% Cleavage (free AuNC fraction: 7-12 mL), gel filtration chromatography with catalytic activity readout; AuNC-1:20-P120-NAv + THR (1 h), ca. 5 biotin ligands per AuNC [3] [%]	% Cleavage (free AuNC fraction: 7-12 mL), gel filtration chromatography with catalytic activity readout; AuNC-P120-NAv + THR (12 h) [3] [%]
MMP9 (Active, Human, Recombinant, PF140, Merck Millipore)	only 20% AuNCs are cleaved from the AuNC-P213-NAv complex	only 0.08% AuNC cleaved per minute	MMP9: 54.9%	75.1	80% AuNCs are cleaved within the first hour of incubation with MMP9	3	7.1	–	–	–	–	–
MMP13 (Active, Human, Recombinant, 444287)	–	–	MMP13: 29.8%	–	–	–	–	–	–	–	–	–
thrombin from human plasma (T7009, Sigma)	–	–	–	–	–	–	–	21.8	5.5	49.6	89.9	90.2
